# Positions count from the first letter of the chain named.
# T1: extracellular domain of the human leptin receptor (human, UniProt P48357 22-839)
# T1 construct: extracellular domain; a tag is not mentioned for the ELISA and cross-linking experiments; also called hECD; recombinant leptin receptor extracellular domain
# T1 sequence (looked up): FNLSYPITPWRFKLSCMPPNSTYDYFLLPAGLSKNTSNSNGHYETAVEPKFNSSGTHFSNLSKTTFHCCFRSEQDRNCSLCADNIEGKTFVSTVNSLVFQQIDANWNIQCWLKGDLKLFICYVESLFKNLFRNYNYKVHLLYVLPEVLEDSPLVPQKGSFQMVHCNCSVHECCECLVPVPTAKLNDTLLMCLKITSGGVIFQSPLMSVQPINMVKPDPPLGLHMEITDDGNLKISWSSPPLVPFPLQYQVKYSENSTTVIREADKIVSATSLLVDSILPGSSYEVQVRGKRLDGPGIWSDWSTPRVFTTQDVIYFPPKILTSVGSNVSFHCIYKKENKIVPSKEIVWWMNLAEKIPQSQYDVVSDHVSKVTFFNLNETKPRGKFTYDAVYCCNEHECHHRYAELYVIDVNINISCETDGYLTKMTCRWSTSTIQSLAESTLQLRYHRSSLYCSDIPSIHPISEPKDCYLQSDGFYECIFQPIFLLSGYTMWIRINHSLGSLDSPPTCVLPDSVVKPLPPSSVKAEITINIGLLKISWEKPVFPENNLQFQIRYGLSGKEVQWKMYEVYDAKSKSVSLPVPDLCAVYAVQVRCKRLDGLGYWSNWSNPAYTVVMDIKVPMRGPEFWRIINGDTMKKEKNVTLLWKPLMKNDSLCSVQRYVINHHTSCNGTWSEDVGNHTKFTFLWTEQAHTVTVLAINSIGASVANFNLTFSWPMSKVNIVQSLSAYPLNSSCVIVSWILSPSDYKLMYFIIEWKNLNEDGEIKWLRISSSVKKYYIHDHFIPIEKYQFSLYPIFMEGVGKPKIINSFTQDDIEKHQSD
# T2: N terminal domain (NTD) of the leptin receptor extracellular domain, F22-Q121 (human, UniProt P48357 22-121)
# T2 sequence: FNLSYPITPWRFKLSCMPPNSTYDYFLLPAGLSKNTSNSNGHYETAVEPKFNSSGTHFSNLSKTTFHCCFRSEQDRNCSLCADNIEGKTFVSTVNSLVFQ
# T3: first cytokine receptor homology domain (CRH1) of the leptin receptor extracellular domain, Q122-V333 (human, UniProt P48357 122-333)
# T3 construct: Expressed and purified subdomain
# T3 sequence: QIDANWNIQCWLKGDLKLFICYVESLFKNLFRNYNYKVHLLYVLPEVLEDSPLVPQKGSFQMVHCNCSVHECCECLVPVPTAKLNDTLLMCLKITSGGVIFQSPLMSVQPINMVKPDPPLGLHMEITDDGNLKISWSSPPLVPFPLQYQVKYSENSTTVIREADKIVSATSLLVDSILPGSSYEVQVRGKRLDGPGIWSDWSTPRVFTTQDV
# T4: fibronectin type III domains (FNIII) of the leptin receptor extracellular domain, I636-D839 (human, UniProt P48357 636-839)
# T4 construct: Expressed and purified subdomain
# T4 sequence: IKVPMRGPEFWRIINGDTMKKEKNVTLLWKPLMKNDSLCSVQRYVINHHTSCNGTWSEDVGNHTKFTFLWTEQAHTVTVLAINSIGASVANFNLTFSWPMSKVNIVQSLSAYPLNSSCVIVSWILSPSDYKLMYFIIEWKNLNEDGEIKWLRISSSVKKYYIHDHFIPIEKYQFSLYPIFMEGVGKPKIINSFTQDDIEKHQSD
# T5: immunoglobulin-like domain (IgD) of the leptin receptor extracellular domain, I334-V427 (human, UniProt P48357 334-427)
# T5 construct: Expressed and purified subdomain
# T5 sequence: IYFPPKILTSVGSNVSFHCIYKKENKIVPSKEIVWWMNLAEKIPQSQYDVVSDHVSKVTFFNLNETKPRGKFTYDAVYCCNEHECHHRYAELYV
# B1: S1scAb06 (antibody, V domains shown)
# VH: QVQLVESGGGVVQPGRSLRLSCAASGFTFSSYGMHWVRQAPGKGLEWVAVISYDGSNKYYADSVKGRFTISRDNSKNTLYLQMNSLRAEDTAVYYCAKSLRNSFDYWGQGTLVTVSS
# VL: EIVLTQSPGTLSLSPGERATLSCRASQSVSSNYLAWYQQKPGQAPRLLIYGASSRPTGIPDRFSGSGSGTDFTLTISRLEPEDFAVYYCQQYAASPLTFGGGTKLEIK
# notes: also called S1scAb6; 51scAb06
# B2: S2H1 (antibody, V domains shown)
# VH: B1 VH with V5L, E6Q, K98S, S99L, L100Y, R101E, S103Y, D105S, Y106L
# VL: B1 VL
# notes: also called SC2H1
# B3: S2H2 (antibody, V domains shown)
# VH: B1 VH with V5L, E6Q, K98T, S99F, L100R, R101E, S103Y, D105E
# VL: B1 VL
# notes: also called SC2H2; 52H2
# B4: S2H3 (antibody, V domains shown)
# VH: B1 VH with V5L, E6Q, K98G, S99V, L100R, R101E, S103Y, D105T
# VL: B1 VL
# notes: also called SC2H3
# B5: S2H5 (antibody, V domains shown)
# VH: B1 VH with V5L, E6Q, K98S, S99R, L100Y, R101E, S103Y, D105S, Y106L
# VL: B1 VL
# notes: also called SC2H5
# B6: S2H6 (antibody, V domains shown)
# VH: B1 VH with V5L, E6Q, K98S, S99F, L100Q, R101E, S103Y, D105T
# VL: B1 VL
# notes: also called SC2H6
# B7: S2H7 (antibody, V domains shown)
# VH: B1 VH with V5L, E6Q, K98T, S99R, L100Y, R101E, S103Y, D105S, Y106T
# VL: B1 VL
# notes: also called SC2H7
# Legend:
# [1] = target: T1, extracellular domain of the human …; test: SPR, Biacore T200; His-tagged leptin receptor ECD amine-coupled on a CM5 chip, binder as analyte
# Method: The SPR binding assays were performed using the Biacore T200™ (GE Healthcare). […] All manipulations were performed as described in the user guide of the manufacturer. The analysis of the results were processed in BIA evaluation Software™.
# [2] = target: T1, extracellular domain of the human …; test: SPR; leptin receptor ECD immobilized, antibody as analyte
# [3] = target: T2, N terminal domain (NTD) of the leptin …; test: ELISA of S2H6 on purified subdomains of the leptin receptor extracellular domain, OD405; antibody concentration not given
# Description: (§1) To test ability if the antibody to bind these domains, these subdomain were used in an ELISA-based biding assay.
# [4] = target: T3, first cytokine receptor homology domain …; test: as above
# Description: as §1
# [5] = target: T4, fibronectin type III domains (FNIII) of …; test: as above
# Description: as §1
# [6] = target: T5, immunoglobulin-like domain (IgD) of the …; test: as above
# Description: as §1
binder,measurement,setting,value
B1,Kd,[1],7.47 nM
same,koff,[1],0.0516 s⁻¹
same,kon,[1],6.91e+06 M⁻¹ s⁻¹
B2,Kd,[2],0.579 nM
same,koff,[2],0.000271 s⁻¹
same,kon,[2],468000 M⁻¹ s⁻¹
B3,Kd,[2],0.355 nM
same,koff,[2],0.000119 s⁻¹
same,kon,[2],336000 M⁻¹ s⁻¹
B4,Kd,[2],0.429 nM
same,koff,[2],0.0002 s⁻¹
same,kon,[2],466000 M⁻¹ s⁻¹
B5,Kd,[2],0.626 nM
same,koff,[2],0.000164 s⁻¹
same,kon,[2],262000 M⁻¹ s⁻¹
B6,binding result,[3],no binding
same,binding result,[4],no binding
same,binding result,[5],no binding
same,binding result,[6],no binding
same,Kd,[2],0.39 nM
same,koff,[2],0.000308 s⁻¹
same,kon,[2],786000 M⁻¹ s⁻¹
same,Kd,[1],0.39 nM
same,koff,[1],0.000308 s⁻¹
same,kon,[1],786000 M⁻¹ s⁻¹
B7,Kd,[2],0.639 nM
same,koff,[2],0.000171 s⁻¹
same,kon,[2],268000 M⁻¹ s⁻¹
